Experimental data: PMC6509359 (Molecular Cell, 2019)
Numbering of substitutions follows the chain as printed. Numbers in names are those of the source. Where “and” joins values, the source holds several entries; their conditions need not be identical. Identical values can stand only once.

B1: Human USP25 (157-714) F522L (domain or fragment, UniProt Q9UHP3 157-714, looked up)
chain: NPYDRKRQDKAPVGLKNVGNTCWFSAVIQSLFNLLEFRRLVLNYKPPSNAQDLPRNQKEHRNLPFMRELRYLFALLVGTKRKYVDPSRAVEILKDAFKSNDSQQQDVSEFTHKLLDWLEDAFQMKAEEETDEEKPKNPMVELFYGRFLAVGVLEGKKFENTEMFGQYPLQVNGFKDLHECLEAAMIEGEIESLHSENSGKSGQEHWFTELPPVLTFELSRFEFNQALGRPEKIHNKLEFPQVLYLDRYMHRNREITRIKREEIKRLKDYLTVLQQRLERYLSYGSGPKRFPLVDVLQYALEFASSKPVCTSPVDDIDASSPPSGSIPSQTLPSTTEQQGALSSELPSTSPSSVAAISSRSVIHKPLTQSRIPPDLPMHPAPRHITEEELSVLESCLHRWRTEIENDTRDLQESISRIHRTIELMYSDKSMIQVPYRLHAVLVHEGQANAGHYWAYIFDHRESRWMKYNDIAVTKSSWEELVRDSFGGYRNASAYCLMYINDKAQFLIQEEFNKETGQPLVGIETLPPDLRDFVEEDNQRFEKELEEWDAQLAQKALQE
notes: source: E. coli Rosetta2(DE3)pLacI, purified (HisTrap, 3C protease, Resource Q, size exclusion)
B2: Chimera: Human USP25 (157-[AIM of Human USP28]-714) (domain or fragment)
chain: B1 chain with R359S, S360L, V361P, I362K, H363S, Q368S, I371S, P372S
B3: Human USP25 (157-714) Q524S (domain or fragment, UniProt Q9UHP3 157-714, looked up)
chain: B1 chain with L366F, Q368S
notes: as for B1
B4: Chimera: Human USP28 (149-[AIM of Human USP25]-703) (domain or fragment)
chain: PNPNDWRRVDGWPVGLKNVGNTCWFSAVIQSLFQLPEFRRLVLSYSLPQNVLENCRSHTEKRNIMFMQELQYLFALMMGSNRKFVDPSAALDLLKGAFRSSEEQQQDVSEFTHKLLDWLEDAFQLAVNVNSPRNKSENPMVQLFYGTFLTEGVREGKPFCNNETFGQYPLQVNGYRNLDECLEGAMVEGDVELLPSDHSVKYGQERWFTKLPPVLTFELSRFEFNQSLGQPEKIHNKLEFPQIIYMDRYMYRSKELIRNKRECIRKLKEEIKILQQKLERYVKYGSGPARFPLPDMLKYVIEFASTKPASESCPPESDTHMTLPLSSVHCSVSDQTSKESTSTESSSQDVESTFSSPEDRSVIHKPFTQSRIPMEMPSQPAPRTVTDEEINFVKTCLQRWRSEIEQDIQDLKTCIASTTQTIEQMYCDPLLRQVPYRLHAVLVHEGQANAGHYWAYIYNQPRQSWLKYNDISVTESSWEEVERDSYGGLRNVSAYCLMYINDKLPYFNAEAAPTESDQMSEVEALSVELKHYIQEDNWRFEQEVEEWEEEQSCKI
B5: Flag-USP25 (2-1055) (enzyme, human, UniProt Q9UHP3 2-1055, looked up)
chain: TVEQNVLQQSAAQKHQQTFLNQLREITGINDTQILQQALKDSNGNLELAVAFLTAKNAKTPQQEETTYYQTALPGNDRYISVGSQADTNVIDLTGDDKDDLQRAIALSLAESNRAFRETGITDEEQAISRVLEASIAENKACLKRTPTEVWRDSRNPYDRKRQDKAPVGLKNVGNTCWFSAVIQSLFNLLEFRRLVLNYKPPSNAQDLPRNQKEHRNLPFMRELRYLFALLVGTKRKYVDPSRAVEILKDAFKSNDSQQQDVSEFTHKLLDWLEDAFQMKAEEETDEEKPKNPMVELFYGRFLAVGVLEGKKFENTEMFGQYPLQVNGFKDLHECLEAAMIEGEIESLHSENSGKSGQEHWFTELPPVLTFELSRFEFNQALGRPEKIHNKLEFPQVLYLDRYMHRNREITRIKREEIKRLKDYLTVLQQRLERYLSYGSGPKRFPLVDVLQYALEFASSKPVCTSPVDDIDASSPPSGSIPSQTLPSTTEQQGALSSELPSTSPSSVAAISSRSVIHKPFTQSRIPPDLPMHPAPRHITEEELSVLESCLHRWRTEIENDTRDLQESISRIHRTIELMYSDKSMIQVPYRLHAVLVHEGQANAGHYWAYIFDHRESRWMKYNDIAVTKSSWEELVRDSFGGYRNASAYCLMYINDKAQFLIQEEFNKETGQPLVGIETLPPDLRDFVEEDNQRFEKELEEWDAQLAQKALQEKLLASQKLRESETSVTTAQAAGDPEYLEQPSRSDFSKHLKEETIQIITKASHEHEDKSPETVLQSAIKLEYARLVKLAQEDTPPETDYRLHHVVVYFIQNQAPKKIIEKTLLEQFGDRNLSFDERCHNIMKVAQAKLEMIKPEEVNLEEYEEWHQDYRKFRETTMYLIIGLENFQRESYIDSLLFLICAYQNNKELLSKGLYRGHDEELISHYRRECLLKLNEQAAELFESGEDREVNNGLIIMNEFIVPFLPLLLVDEMEEKDILAVEDMRNRWCSYLGQEMEPHLQEKLTDFLPKLLDCSMEIKSFHEPPKLPSYSTHELCERFARIMLSLSRTPADGR
notes: tetrameric and dimeric populations; also called FLAG-tagged USP25; ectopically expressed wild-type USP25; source: HEK293, transfected (pOPINE), in lysate; not shown: Flag, N-terminal, kept
B6: Flag-USP25 (2-1055) P521S F522E (enzyme, human, UniProt Q9UHP3 2-1055, looked up)
chain: B5 chain with P520S, F521E
notes: also called USP25 mutated in the AIM (P521S F522E); source: HEK293, transfected (pOPINE), in lysate; not shown: Flag, N-terminal, kept
B7: M. musculus USP25 (1-1055) (enzyme, mouse (Mus musculus), UniProt P57080 1-1055, looked up)
chain: MTVEQNVLQQSAAQKHQQTFLNQLREITGINDAQILQQALKDSNGNLELAVAFLTAKNAKTPPQEETGYYQTALPGNDRYISVGSQADANVIDLTGDDKDDLQRAIALSLAESNRAFRETGITDEEQAISRVLEASIAENKACLKRTPIEVWRDSRNPYDRKRQEKAPVGLKNVGNTCWFSAVIQSLFNLLEFRRLVLNYKPPSNAQDLPRNQKEHRNLPFMRELRYLFALLVGTKRKYVDPSRAVEILKDAFKSNDSQQQDVSEFTHKLLDWLEDAFQMKAEEETDEEKPKNPMVELFYGRFLAMGVLEGKKFENTEMFGQYPLQVNGFKDLHECLEAAMIEGEIESLHSDNSGKSGQEHWFTELPPVLTFELSRFEFNQALGRPEKIHNKLEFPQVLYLDRYMHRNREITRIKREEIKRLKDYLTVLQQRLERYLSYGSGPKRFPLVDVLQYALEFASSKPVCTSPVDDIDASSSASGPLPSQSLPSTTEQQGPCASDLPGSSSPASGAALPLRSVIHKPFTQSRIPPDLPMHPAPRHITEEELCVLESCLHRWRTEIENDTRDLQESISRIHRTIELMYSDKSMIQVPYRLHAVLVHEGQANAGHYWAYIFDHRESRWMKYNDIAVTKSSWEELVRDSFGGYRNASAYCLMYIDDKAQFLIQEEFNKETGQALVGMETLPPDLRDFVEEDNQRFEKELEEWDTQLAQRSLQEKLLAAPKLREAEASATTAQAGGADYLEQPSRSDLSKHWKEETLRVIAKASHDLEDKGPETVLQSAIKLEYSRLVKLAQEDTPPETDYRLHHVLVYFIQNQAPKKIIEKTLLEQFGDRNLSFDERCHNIMKVAQAKLEMIKPEEVNLEEYEEWHADYKKFRETTMYLITGLENFQRESYIDSLLFLLCAYQNNKELLSKGPYRGHDGELISHYRRECLLKLNEQAAELFESGEDGDVNNGLIIMNEFIVPFLPLLLVDDMEEKDILAVEDMRNRWCSYLGQEMEANLQEKLTDFLPKLLDCSTEIKGFHEPPKLPSYSAHELCERFARIMLSLSRTPADGR
notes: dimer-tetramer equilibrium; also called full-length mouse USP25; source: E. coli Rosetta2(DE3)pLacI, purified (HisTrap, 3C protease, Resource Q, size exclusion)
B8: HA-USP28 (2-1077) (enzyme, human, UniProt Q96RU2 2-1077, looked up)
chain: TAELQQDDAAGAADGHGSSCQMLLNQLREITGIQDPSFLHEALKASNGDITQAVSLLTDERVKEPSQDTVATEPSEVEGSAANKEVLAKVIDLTHDNKDDLQAAIALSLLESPKIQADGRDLNRMHEATSAETKRSKRKRCEVWGENPNPNDWRRVDGWPVGLKNVGNTCWFSAVIQSLFQLPEFRRLVLSYSLPQNVLENCRSHTEKRNIMFMQELQYLFALMMGSNRKFVDPSAALDLLKGAFRSSEEQQQDVSEFTHKLLDWLEDAFQLAVNVNSPRNKSENPMVQLFYGTFLTEGVREGKPFCNNETFGQYPLQVNGYRNLDECLEGAMVEGDVELLPSDHSVKYGQERWFTKLPPVLTFELSRFEFNQSLGQPEKIHNKLEFPQIIYMDRYMYRSKELIRNKRECIRKLKEEIKILQQKLERYVKYGSGPARFPLPDMLKYVIEFASTKPASESCPPESDTHMTLPLSSVHCSVSDQTSKESTSTESSSQDVESTFSSPEDSLPKSKPLTSSRSSMEMPSQPAPRTVTDEEINFVKTCLQRWRSEIEQDIQDLKTCIASTTQTIEQMYCDPLLRQVPYRLHAVLVHEGQANAGHYWAYIYNQPRQSWLKYNDISVTESSWEEVERDSYGGLRNVSAYCLMYINDKLPYFNAEAAPTESDQMSEVEALSVELKHYIQEDNWRFEQEVEEWEEEQSCKIPQMESSTNSSSQDYSTSQEPSVASSHGVRCLSSEHAVIVKEQTAQAIANTARAYEKSGVEAALSEVMLSPAMQGVILAIAKARQTFDRDGSEAGLIKAFHEEYSRLYQLAKETPTSHSDPRLQHVLVYFFQNEAPKRVVERTLLEQFADKNLSYDERSISIMKVAQAKLKEIGPDDMNMEEYKKWHEDYSLFRKVSVYLLTGLELYQKGKYQEALSYLVYAYQSNAALLMKGPRRGVKESVIALYRRKCLLELNAKAASLFETNDDHSVTEGINVMNELIIPCIHLIINNDISKDDLDAIEVMRNHWCSYLGQDIAENLQLCLGEFLPRLLDPSAEIIVLKEPPTIRPNSPYDLCSRFAAVMESIQGVSTVTVK
notes: USP28, human, residues 2-1077; also called hemagglutinin (HA)-tagged USP28, wild type; source: HEK293, transfected (pOPINE), in lysate; not shown: HA, N-terminal, kept
B9: G. gallus USP28 (143-706) (domain or fragment, chicken (Gallus gallus), UniProt Q5ZID5 143-706, looked up)
chain: SKQSDWKRVGDWPVGMKNIGNTCWFSAVIQSLFQLPQFRRLVLSYSFPPNVLESCRTRTGKRNIAFMQELQCLFALMLGTRRKFVDPSAALELLRDAFKSTEEQQQDVSEFTHKLLDWLEDAFQLAVNVRSPGDKSENPMVQLFYGTFLTEGVHEGNTFSKIETFGQYPLQVNGYRNLNECLEGAMVEGEMDEETATQSVKYVQERWFTKLPPVLTFELSRFEFNQSLGQPEKIHTKLEFPQTIFMDRYLYCSKELIQTKREEMKKLKEKMLVLQQKLERYMKYGSGPARFPLPDMLQYVLEFITTKPAGAVSSACVSSTEDSQMMDRQSQGESLILGTPSQPDSMLDGKDGKPEDEAVLLANSSPQQQLNAPLQPSEPPAEMSDCPAPHVVSEEEMNLVTTCLQRWRNEIEQDVRDLKESIARVSLSIDEMYSDPHLQQVPYHLHAVLVHEGQANAGHYWAFIYDQPRKSWLKYNDISVTESSWEELERDSFGGLRNASAYCLMYISDKVSHVVAGEGDGSEVGQFQKEVEALPPELRRYIQEDNWRLEQEAEEWEEEQSCKI
notes: USP28, chicken, residues 143-706; also called USP28 catalytic domain from chicken; source: E. coli Rosetta2(DE3)pLacI, purified (HisTrap, 3C protease, Resource Q, size exclusion)

Assays:
[1] = biological target: the molecule itself; assay: SEC-MALS; 100 μL of 1-2 mg/mL protein on Superdex 200 10/300, 0.5 mL/min, PBS + 2 mM DTT
[2] = biological target: the molecule itself; assay: native gel or EMSA; native PAGE of lysates of HEK293 cells transfected with FLAG- or HA-tagged proteins, immunoblotting; recombinant USP25 tetramer and dimer fractions as size standard
[3] = biological target: the molecule itself; assay: not stated; oligomeric states of purified orthologs and of full-length proteins, Figures S7A, S7B and S3J

Protein	stoichiometry N [1]	stoichiometry N [2]	further results
B1	2	–	–
B2	2	–	–
B3	2	–	–
B4	2	–	–
B5	–	4 and 2	–
B6	–	2	–
B7	–	–	stoichiometry N [3]: 2 and 4
B8	–	2	–
B9	–	–	stoichiometry N [3]: 2
